Experimental data from patent US7786071B2 (priority 2003, dated 2010).
Where two headings read alike, the source gives them in different places.

Columns and labels:
[1] = format: biochemical
[2] = format: biochemical; remark: listed apart in the source
[3] = format: biochemical; remark: listed apart in the source
[4] = format: biochemical; conditions: read-out: DEPCyC hydrolysis KM
[5] = format: biochemical; conditions: read-out: Dihydrocoumarin KM
[6] = read-out: Kd for the first (higher affinity) calcium; cited from earlier work
[7] = read-out: Paraxon hydrolysis KM
[8] = read-out: Phenylacetate hydrolysis KM

B1: G1B11: first generation trx-rPON3 variant; SEQ ID NO: 44, 50 (protein)
chain: MAKLLLLTLLGACLALIGERLLNFRERVSTTREIKATEPQNCHLIEGLENGSEDIDILPSGLAFISSGLKYPGMPNFAPDEPGKIFLIDMNEQNPRAQALEISGGFDKELFNPHGISTFIDKDHTVYLYVVNHPNMDSTVEIFKFEEQQHSLIHLKTLKHELLKSVNDIVVLGPEQFYATRDHYFTNYVLALLKMFLDLRWTSVLFYSPKEVKVVAKGFSSANGITVSLDKKYVYVADATAKNVHVMEKHDNWDLTELKVIQLGTLVDNLTVDPATGDILAGCHPNPMKLLIYNPEDPPGSEVLRIQDVLSEKPRVSTVYANNGSVLQGSTVASVYQGKILIGTIFHKTLYCVL
modifications: thioredoxin fusion; In vitro evolved PON variant G1B11
Km [1, 7]: 1100 µM
Km ([2]; read-out: 2NA hydrolysis KM): 180 µM

B2: G3C9: third-round highly soluble rPON1 variant without tags, wt-like activity; SEQ ID NO: 55 (DNA), 56 (protein) (protein)
chain: MAKLTALTLLGLGLALFDGQKSSFQTRFNVHREVTPVELPNCNLVKGVDNGSEDLEILPNGLAFISSGLKYPGIMSFDPDKSGKILLMDLNEEDPVVLELGITGNTLDISSFNPHGISTFTDEDNTVYLLVVNHPDSSSTVEVFKFQEEEKSLLHLKTIRHKLLPSVNDIVAVGPEHFYATNDHYFADPYLKSWEMHLGLAWSFVTYYSPNDVRVVAEGFDFANGINISPDGKYVYIAELLAHKIHVYEKHANWTLTPLKSLDFDTLVDNISVDPVTGDLWVGCHPNGMRIFYYDPKNPPGSEVLRIQDILSEEPKVTVVYAENGTVLQGSTVAAVYKGKLLIGTVFHKALYCEL
modifications: In vitro evolved PON variant G3C9
kcat(Paraoxon) ([1]; pH 8): 1.1 s⁻¹
Km ([1]; pH 8, read-out: KM(Paraoxon)): 94 µM
kcat (PheAc) ([3]; pH 8): 789 s⁻¹
Km ([3]; pH 8, read-out: KM(PheAc)): 330 µM
Km [3, 8]: 330 µM
Km [4]: 70 µM

B3: G1A5: first-round directly evolved PON1 variant, thioredoxin-fused; SEQ ID NO: 25 (DNA), 57 (protein) (protein)
chain: MAKLTALTLLGLGLALFDGQKSSFQTRFNVHREVTPVELPNCNLVKGIDNGSEDLEILPNGLAFISSGLKYPGIMSFDPDKSGKILLMDLNEEDPVVLELGITGNTLDISSFNPHGISTFIDEDNTVYLLVVNHPDSSSTVEVFKFQEKEKSLLHLKTIRHKLLPSVNDIVAVGPEHFYATNDHYFIDPYLKSWEMHLGLAWSFVTYYSPNDVRVVAEGFDFANGINISPDGKYVYIAELLAHKIHVYEKHANWTLTPLKSLDFNTLVDNISVDPVTGDLWVGCHPNGMRIFYYDPENPPGSEVLRIQNILSKEPKVTVVYAENGTVLQGTTVASVYKGKLLIGTVFHKALYCEL
modifications: thioredoxin-fused; In vitro evolved PON variant G1A5
kcat(Paraoxon) ([1]; pH 8): 1.16 s⁻¹
Km ([1]; pH 8, read-out: KM(Paraoxon)): 85 µM
Km ([2]; read-out: 2-Naphthyl acetate KM): 80 µM
kcat (PheAc) ([3]; pH 8): 833 s⁻¹
Km ([3]; pH 8, read-out: KM(PheAc)): 390 µM
Km [5]: 120 µM

B4: G3C9.10: G3C9 variant with mutations L69V and E218D; SEQ ID NO: 62, 63 (protein)
chain: MAKLTALTLLGLGLALFDGQKSSFQTRFNVHREVTPVELPNCNLVKGVDNGSEDLEILPNGLAFISSGVKYPGIMSFDPDKSGKILLMDLNEEDPVVLELGITGNTLDISSFNPHGISTFTDEDNTVYLLVVNHPDSSSTVEVFKFQEEEKSLLHLKTIRHKLLPSVNDIVAVGPEHFYATNDHYFADPYLKSWEMHLGLAWSFVTYYSPNDVRVVADGFDFANGINISPDGKYVYIAELLAHKIHVYEKHANWTLTPLKSLDFDTLVDNISVDPVTGDLWVGCHPNGMRIFYYDPKNPPGSEVLRIQDILSEEPKVTVVYAENGTVLQGSTVAAVYKGKLLIGTVFHKALYCEL
modifications: In vitro evolved PON variant G3C9.10
Km [3, 8]: 760 µM
Km [4]: 50 µM

B5: G3C9.49: G3C9 variant with mutations G19R, S193P, N287D and V346A; SEQ ID NO: 64, 65 (protein)
chain: MAKLTALTLLGLGLALFDRQKSSFQTRFNVHREVTPVELPNCNLVKGVDNGSEDLEILPNGLAFISSGLKYPGIMSFDPDKSGKILLMDLNEEDPVVLELGITGNTLDISSFNPHGISTFTDEDNTVYLLVVNHPDSSSTVEVFKFQEEEKSLLHLKTIRHKLLPSVNDIVAVGPEHFYATNDHYFADPYLKPWEMHLGLAWSFVTYYSPNDVRVVAEGFDFANGINISPDGKYVYIAELLAHKIHVYEKHANWTLTPLKSLDFDTLVDNISVDPVTGDLWVGCHPDGMRIFYYDPKNPPGSEVLRIQDILSEEPKVTVVYAENGTVLQGSTVAAVYKGKLLIGTAFHKALYCEL
modifications: In vitro evolved PON variant G3C9.49
Km [3, 8]: 300 µM
Km [4]: 80 µM

B6: RabPON3: wild-type rabbit PON3 expressed in E. coli fused to thioredoxin; SEQ ID NO: 30, 41 (protein, listed as Oryctolagus cuniculus)
chain: MAKLLLLTLLGASLAFVGERLLAFRNSFGAVQELEPVEPQNCVLIEGLENGSEDIDILPSGLAFISSGLKYPGMPNFAPDEPGKIFLIDMNEKNPRAQELEISNGFEKESFNPHGISTFIDKDHTVYLYVVNHPHMKSTVEIFKFEEQQRSLVHLKTIKHELLKSVNNIVVLGPEQFYATRDHYFTNYVLALLEMFLDLHWTSVLFYSPKEVKVVAKGFSSANGITVSLDKKYVYVADATAKNVHVMEKHDNWDLTELKVIHLDTLVDNLSVDPATGDILAGCHPNGMKLLNYNPEDPPGSEVLRIQNVLSEKPRVSTVYTNDGSVLQGSTVASVYQGKILIGTIFHKTLYCVL
modifications: thioredoxin fusion
Km [1, 7]: 1300 µM
Km ([2]; read-out: 2NA hydrolysis KM): 211 µM

B7: G3G3: third generation trx-rPON3 variant; SEQ ID NO: 47, 53 (protein)
chain: MAKLLLLTLLGASLAFVGERLLAFRDSFGAVQELEPVEPQNCVLIEGLENGSEDIDILPSGLAFISSGLKYPGMPNFAPDEPGKIFLIDMNEKNPRAQALEISGGFDKESFNPHGISTFIDKDHTVYLYVVNHPNMDSTVEVFKFEEQQHSLIHLKTIKHELLKSVNDIVVLGPEQFYATRDHYFTNSLLSFFEMILDLRWTSVLFYSPREVKVVAKGFSSANGITVSLDKKYVYVADVAAKNIHIMEKHDNWDLTELKVIHLDTLVDNLTVDPATGDILAGCHPNPMKLLNYNPEDPPGSEVLRIQNVLSEKPRVSTVYANNGSVLQGTSVASVYHGKILIGTIFHKTLYCDL
modifications: thioredoxin fusion; In vitro evolved PON variant G3G3
Km ([2]; read-out: 2NA hydrolysis KM): 650 µM

B8: G2D6: second-round directly evolved PON1 variant, thioredoxin-fused; SEQ ID NO: 27 (DNA), 59 (protein) (protein)
chain: MAKLTALTLLGLGLALFDRQKSSFQTRFNVHREVTPVELPNCNLVKGIDNGSEDLEILPNGLAFISSGLKYPGIMSFDPDKSGKILLMDLNEEDPVVLELGITGSTFDLSSFNPHGISTFTDEDNTVYLLVVNHPDSSSTVEVFKFQEKERSLLHLKTIRHKLLPSVNDIVAVGPESFYATNDHYFADPYLKSWEMHLGLAWSFVTYYSPNDVRVVAEGFDFANGINISPDGKYVYIAELLAHKIHVYEKHANWTLTPLKSLDFNTLVDNISVDPVTGDLWVGCHPNGMRIFYYDPENPPGSEVLRIQDILSKEPKVTVVYAENGTVLQGSTVAAVYKGKLLIGTVFHKALYCDL
modifications: thioredoxin fusion; In vitro evolved PON variant G2D6
kcat(Paraoxon) ([1]; pH 8): 0.98 s⁻¹
Km ([1]; pH 8, read-out: KM(Paraoxon)): 100 µM
kcat (PheAc) ([3]; pH 8): 562 s⁻¹
Km ([3]; pH 8, read-out: KM(PheAc)): 320 µM

B9: G2C2: second-generation trx-rPON3 variant; SEQ ID NO: 45, 51 (protein)
chain: MAKLLLLTLLGVGLSLVGERLLAFRNSFGAVQELEPVEPQNCVLIEGLENGSEDIDILPSGLAFISTGLKYPGMPNFAPDEPGKIFLMDLNEQNPRAQALEISGGFDKELFNPHGISTFIDKDNTVYLYVVNHPHMESTVEIFKFEEQQHSLIHLKTIKHELLKSVNDIVVLGPEQFYATRDHYFTNYVLARLEMILDLRWTYVLFYSPREVKVVAKGFSSANGITVSLDKKYVYVADATAKNVHVMEKHDNWDLTQLKVIQLGTLVDNLSVDPATGDILAGCHPNPMKLLNYNPEDPPGSEVLRIQNVLSEKPRVSTVYTNDGSVLQGTSVASVYQGKILIGTIFHKALHCDL
modifications: thioredoxin fusion; In vitro evolved PON variant G2C2
Km [1, 7]: 800 µM
Km ([2]; read-out: 2NA hydrolysis KM): 260 µM

B10: RabPON1: wild-type rabbit PON1, GenBank Accession No. AF220943 (protein, listed as Rattus norvegicus)
chain: MAKLLGLTLVGLVLALYKNHRSSYQTRLNAFREVTPVDLPNCTLVKGIEAGAEDLEILPNGLTFFSTGLKYPGIKSFDPSKPGKILLMDLNEKEPAVSELAIMGNTLDMSSFNPHGISTFIDEDNTVYLLVVSHPDSSSTVEVFKFQEEERSLLHLKTITHELLPSINDIAAVGPESFYATNDHYFADPYLRSWEMYLGLSWSNVVYYSPDKVRVVADGFDFANGIGISLDGKYVYIAELLAHKIHVYEKHANWTLTPLKVLSFDTLVDNISVDPVTGDLWVGCHPNGMRIFFYDSENPPGSEVLRIQSILSEDPKVTVVYAENGTVLQGTTVAAVYKGKLLIGTVFHRALCCDL
Kd [6]: 50 nM

B11: G1A7: first generation trx-rPON3 variant; SEQ ID NO: 43, 49 (protein)
chain: MAKLLLLTLLGVGLSLVGERLLAFRNSFGAVQELEPVEPQNCHLIEGLENGSEDIDILPSGLAFISSGLKYPGMPAFAPDKPGRIFLMDLNEQNPEAQALEISGGLDQESLNPHGISTFIDKDSTAYLYVVNHPNMDSTVEIFKFEEQQRSLVHMKTIKHELLKSVNNIVVLGPEQFYATRDHYFTNSLLSFFEMILDPHWTSVVFYSPREVKVVAKGFSSANGITVSLDKKYVYVADATAKNVHVMEKHDNWDLTELKVIHLDTLVDNLTVDPATGDILAGCHPNPMKLLIYNPEDPPGSEVLRIQDSLSDKPRVSTLYANNGSVLQGTSVASVYHGKILIGTIFHKTLYCDL
modifications: thioredoxin fusion; In vitro evolved PON variant G1A7
Km [1, 7]: 2500 µM
Km ([2]; read-out: 2NA hydrolysis KM): 160 µM
